Here are results for one substance from patent US5759769.

The experiment has as its target CLTB-106 (negative control). Description: ELISA, peptide at 1 ug per well, 2F5 at 40 ng per well; negative control.

Regarding “human neutralizing monoclonal antibody 2F5”, the Absorbance (450 nm) (absorbance at 450 nm) is 0.07.
